T1: endogenous FADD (human (endogenous in Jurkat, BJAB and …, UniProt Q13158 1-208))
T1 construct: FADD, endogenous; source: endogenous, lysates of caspase-8 null Jurkat, BJAB and HaCaT cells
T1 sequence (looked up): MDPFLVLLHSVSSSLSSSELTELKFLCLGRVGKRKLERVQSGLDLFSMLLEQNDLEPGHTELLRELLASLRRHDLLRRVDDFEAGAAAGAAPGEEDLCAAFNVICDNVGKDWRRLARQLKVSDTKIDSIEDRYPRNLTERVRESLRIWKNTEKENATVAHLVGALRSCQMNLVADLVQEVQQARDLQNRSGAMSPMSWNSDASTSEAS

B1: endogenous caspase-8 (natural protein, human (endogenous in BJAB and HaCaT), UniProt Q14790 1-479, looked up)
chain: MDFSRNLYDIGEQLDSEDLASLKFLSLDYIPQRKQEPIKDALMLFQRLQEKRMLEESNLSFLKELLFRINRLDLLITYLNTRKEEMERELQTPGRAQISAYRVMLYQISEEVSRSELRSFKFLLQEEISKCKLDDDMNLLDIFIEMEKRVILGEGKLDILKRVCAQINKSLLKIINDYEEFSKERSSSLEGSPDEFSNGEELCGVMTISDSPREQDSESQTLDKVYQMKSKPRGYCLIINNHNFAKAREKVPKLHSIRDRNGTHLDAGALTTTFEELHFEIKPHDDCTVEQIYEILKIYQLMDHSNMDCFICCILSHGDKGIIYGTDGQEAPIYELTSQFTGLKCPSLAGKPKVFFIQACQGDNYQKGIPVETDSEEQPYLEMDLSSPQTRYIPDEADFLLGMATVNNCVSYRNPAEGTWYIQSLCQSLRERCPRGDDILTILTEVNYEVSNKDDKKNMGKQMPQPTFTLRKKLVFPSD
notes: caspase-8, endogenous; procaspase-8 and p43/41 cleavage fragments detected; also called procaspase-8; p43/41 cleavage fragments; source: endogenous, BJAB and HaCaT lysates

Assays:
[1] = biological target: endogenous caspase-8 (human (endogenous in BJAB and HaCaT)) (UniProt Q14790); experiment: affinity purification with mass spectrometry; native TRAIL DISC from c-FLIPS overexpressing BJAB cells; label-free absolute quantification (TOP 3) by LC-MS/MS, n = 3
[2] = biological target: endogenous caspase-8 (human (endogenous in BJAB and HaCaT)) (UniProt Q14790); experiment: affinity purification with mass spectrometry; native CD95 DISC from c-FLIPS overexpressing HaCaT cells; label-free absolute quantification (TOP 3) by LC-MS/MS, n = 3
[3] = biological target: T1, endogenous FADD; experiment: affinity purification with mass spectrometry; native TRAIL DISC from control (vector) BJAB cells; label-free absolute quantification (TOP 3) by LC-MS/MS, n = 3; conditions: partners not purified
[4] = biological target: T1, endogenous FADD; experiment: affinity purification with mass spectrometry; native TRAIL DISC from c-FLIPS overexpressing BJAB cells; label-free absolute quantification (TOP 3) by LC-MS/MS, n = 3; conditions: partners not purified

Molecule | stoichiometry N [1] | stoichiometry N [2] | stoichiometry N [3] [fold] | stoichiometry N [4]
c-FLIPS stably overexpressed in BJAB or HaCaT cells (natural protein) | 1 | 1 |  | 
B1 |  |  | ~6 | ~1

From paper PMC4819448, “Co-operative and Hierarchical Binding of c-FLIP and Caspase-8: A Unified Model Defines How c-FLIP Isoforms Differentially Control Cell Fate” (Molecular Cell, 2016)
